How the values were obtained:
[1] = target: T1, cynomolgus monkey MuSK (cynomolgus monkey, UniProt A0A2K5USF6 24-487); test: Biacore, MuSK on chip (200RU), 66.7 nM mAb, dissociation pH 7.4
Method: (§1) For affinity determination, a CMS chip was coated with cynomolgus monkey, rat and mouse MuSK (200RU) and 66.7 nM of antibody was applied and kinetic parameters calculated (Table 8). The following conclusions could be drawn: (1) 3B2g1m3 and 3B2g2m3 (m3 variants) show significant drop in affinity for MuSK for all species tested; (2) 3B2g1m2 and 3B2g2m2 (m2 variants) show some drop in affinity for MuSK; (3) 3B2g1m1, 3B2g2m1, 3B2g1m4, 3B2g2m4 (ml and m4 variants) show no drop in affinity for MuSK for all species tested; and (4) for all clones there is no difference between g1 and g2 variants (VL methionine versus serine in CDR3).

[2] = target: T2, mouse MuSK (mouse, UniProt Q61006 22-494, limits assumed); test: as above
T2 construct: Coated on ELISA plates or on the Biacore chip; also called full length mouse MuSK; mouse MuSK (in house produced in HEK293 cells)
T2 sequence (looked up): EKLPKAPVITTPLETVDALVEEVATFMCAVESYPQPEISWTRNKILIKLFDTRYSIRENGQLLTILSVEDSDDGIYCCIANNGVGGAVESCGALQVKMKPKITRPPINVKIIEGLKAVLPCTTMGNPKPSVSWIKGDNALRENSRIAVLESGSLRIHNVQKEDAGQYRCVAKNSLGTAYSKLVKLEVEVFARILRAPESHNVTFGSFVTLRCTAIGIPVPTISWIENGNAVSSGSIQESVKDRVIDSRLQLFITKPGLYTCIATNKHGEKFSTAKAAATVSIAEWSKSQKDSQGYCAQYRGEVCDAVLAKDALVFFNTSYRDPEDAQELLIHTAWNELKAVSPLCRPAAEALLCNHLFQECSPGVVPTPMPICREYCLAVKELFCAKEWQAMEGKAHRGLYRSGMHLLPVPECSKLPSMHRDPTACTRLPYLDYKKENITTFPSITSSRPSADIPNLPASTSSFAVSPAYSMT
Method: as §1

[3] = target: T3, rat MuSK (rat, UniProt Q62838 22-494, limits assumed); test: as above
T3 construct: Coated on Biacore chip (200RU) or ELISA plate
T3 sequence (looked up): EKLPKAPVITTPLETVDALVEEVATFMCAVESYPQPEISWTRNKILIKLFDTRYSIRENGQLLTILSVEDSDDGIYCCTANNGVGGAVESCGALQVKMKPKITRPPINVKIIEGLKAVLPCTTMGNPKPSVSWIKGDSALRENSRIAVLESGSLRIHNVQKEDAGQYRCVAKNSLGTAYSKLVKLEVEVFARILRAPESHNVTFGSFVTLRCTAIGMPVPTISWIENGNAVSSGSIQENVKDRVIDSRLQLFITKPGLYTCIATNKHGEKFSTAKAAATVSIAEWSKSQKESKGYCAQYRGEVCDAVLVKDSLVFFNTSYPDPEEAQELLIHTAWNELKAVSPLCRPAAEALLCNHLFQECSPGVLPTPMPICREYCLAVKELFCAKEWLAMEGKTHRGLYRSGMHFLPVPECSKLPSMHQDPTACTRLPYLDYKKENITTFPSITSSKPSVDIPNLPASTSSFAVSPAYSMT
Method: as §1

[4] = target: T1, cynomolgus monkey MuSK; test: Biacore, MuSK on chip, association pH 7.4, dissociation pH 5.5
Method: as §1
(§2) In order to study pH dependent binding of our antibodies to MuSK, the same Biacore was used as above, but now dissociation was done at pH 5.5 instead of pH 7.4. […] The following conclusions could be drawn for the different variants: (1) 3B2g1m3 and 3B2g2m3 (m3 variants) show significant drop in affinity for MuSK for all species tested; (2) 3B2g1m2 and 3B2g2m2 (m2 variants) show some drop in affinity for MuSK; (3) 3B2g1m1, 3B2g2m1, 3B2g1m4, 3B2g2m4 (m1 and m4 variants) show no drop in affinity for MuSK for all species tested; and (4) for all clones there is no difference between g1 and g2 variants (VL methionine versus serine in CDR3).

[5] = target: T2, mouse MuSK; test: as above
Method: as §1, §2

[6] = target: T3, rat MuSK; test: as above
Method: as §1, §2

[7] = target: T4, mouse MuSK, endogenous (C2C12 myotubes; neuromuscular synapses of mice) (mouse, UniProt Q61006 22-868); test: cell-based or functional assay
T4 sequence (looked up): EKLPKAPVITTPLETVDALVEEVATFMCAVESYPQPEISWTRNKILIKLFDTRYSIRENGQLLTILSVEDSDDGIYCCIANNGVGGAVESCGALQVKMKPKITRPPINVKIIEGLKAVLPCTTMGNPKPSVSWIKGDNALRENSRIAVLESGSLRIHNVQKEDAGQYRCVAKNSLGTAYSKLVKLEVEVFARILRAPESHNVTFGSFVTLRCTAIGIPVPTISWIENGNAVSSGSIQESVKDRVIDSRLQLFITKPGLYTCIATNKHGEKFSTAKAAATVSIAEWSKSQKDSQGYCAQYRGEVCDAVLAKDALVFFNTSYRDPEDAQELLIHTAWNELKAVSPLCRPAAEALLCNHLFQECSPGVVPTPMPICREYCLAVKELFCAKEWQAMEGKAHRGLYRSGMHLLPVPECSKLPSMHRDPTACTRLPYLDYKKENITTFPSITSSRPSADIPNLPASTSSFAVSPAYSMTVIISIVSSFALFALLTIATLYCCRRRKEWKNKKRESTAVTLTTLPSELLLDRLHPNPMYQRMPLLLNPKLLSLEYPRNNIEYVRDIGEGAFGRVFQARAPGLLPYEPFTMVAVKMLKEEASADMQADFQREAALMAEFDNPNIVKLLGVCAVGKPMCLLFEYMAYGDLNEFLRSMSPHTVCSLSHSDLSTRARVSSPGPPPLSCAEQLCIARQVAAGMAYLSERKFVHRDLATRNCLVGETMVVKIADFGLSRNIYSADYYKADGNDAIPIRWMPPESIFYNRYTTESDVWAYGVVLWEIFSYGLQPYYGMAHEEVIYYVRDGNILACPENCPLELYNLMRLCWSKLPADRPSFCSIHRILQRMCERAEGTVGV

[8] = target: T2, mouse MuSK; test: Biacore, MuSK on chip, association pH 7.4, dissociation pH 5.5; association at pH 7.4, dissociation at pH 5.5
Method: as §1, §2

T1 sequence (A0A2K5USF6 entry or part of it): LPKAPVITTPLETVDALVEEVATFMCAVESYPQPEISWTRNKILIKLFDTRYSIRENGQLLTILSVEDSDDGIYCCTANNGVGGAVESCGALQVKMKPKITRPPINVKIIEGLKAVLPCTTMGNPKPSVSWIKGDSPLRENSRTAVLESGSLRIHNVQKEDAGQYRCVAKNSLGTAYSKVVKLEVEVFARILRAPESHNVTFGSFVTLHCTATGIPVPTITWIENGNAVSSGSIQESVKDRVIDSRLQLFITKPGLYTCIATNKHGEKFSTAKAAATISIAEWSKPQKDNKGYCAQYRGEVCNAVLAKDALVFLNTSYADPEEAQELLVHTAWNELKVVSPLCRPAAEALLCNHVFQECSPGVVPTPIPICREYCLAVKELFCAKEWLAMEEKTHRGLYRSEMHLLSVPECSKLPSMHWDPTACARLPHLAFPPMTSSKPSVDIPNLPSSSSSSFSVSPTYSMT

- R0 [1]: 133 RU
- koff [1]: 0.00183 s⁻¹
- kon [1]: 850000 M⁻¹ s⁻¹
- R0 [2]: 155 RU
- koff [2]: 0.00253 s⁻¹
- kon [2]: 1.61e+06 M⁻¹ s⁻¹
- R0 [3]: 125 RU
- koff [3]: 0.00314 s⁻¹
- kon [3]: 1.45e+06 M⁻¹ s⁻¹
- R0 [4]: 148 RU
- koff [4]: 0.0034 s⁻¹
- kon [4]: 800000 M⁻¹ s⁻¹
- R0 [5]: 152 RU
- kon [5]: 70000 M⁻¹ s⁻¹
- R0 [6]: 136 RU
- koff [6]: 0.0865 s⁻¹
- kon [6]: 40000 M⁻¹ s⁻¹
- MuSK phosphorylation in C2C12 myotubes [7]: ~80 % of 1 nM agrin
- koff [8]: 0.00915 s⁻¹
B1: 3B2g1m2 (antibody, human IgG1, V domains shown)
VH: EVQLLESGGGLVQPGGSLRLSCAASGFTFSDYGMSWVRQAPGKGLEWVSAIPGSGGSTYYKESVKGRFTISRDNSKNTLYLQMNSLRAEDTAVYYCAKRSGRIAFGALDAWGQGTLVTVSS
VL: QTVVTQEPSFSVSPGGTVTLTCGLSSGSVTSSNYPDWYQQTPGQAPRTLIYSTDSRHSGVPDRFSGSILGNKAALTITGAQADDESDYYCGLYMYSGSKNYVFGGGTKLTVL
notes: human IgG1-LALA backbone; produced in HEK293 cells

From patent US20230151091A1 (NEW YORK UNIVERSITY, published 2023)
